Assay results taken from patent publication US20250276077A1, “EPHA2 ANTIBODIES” (Immunome, Inc., priority 2022, published 2025).

What was measured:
[1] = target: Human EphA2 (ephrin receptor A2), native, in human tumor tissue (human) (UniProt P29317); test: IF tumor tissue ESO, 3 ug/ml
[2] = target: Human EphA2 (ephrin receptor A2), native, in human tumor tissue (human) (UniProt P29317); test: IF tumor tissue STS, 1 ug/ml
[3] = target: Human EphA2 (ephrin receptor A2), native, in human tumor tissue (human) (UniProt P29317); test: IF tumor tissue STS, 3 ug/ml
[4] = target: Human EphA2 (ephrin receptor A2), native, in human tumor tissue (human) (UniProt P29317); test: IF tumor tissue URO, 3 ug/ml
[5] = target: Human EphA2 (ephrin receptor A2), native, in human tumor tissue (human) (UniProt P29317); test: IF tumor tissue ESO, 10 ug/ml
[6] = target: Human EphA2 (ephrin receptor A2), native, in human tumor tissue (human) (UniProt P29317); test: IF tumor tissue ESO, 30 ug/ml
[7] = target: Human EphA2 (ephrin receptor A2), native, in human tumor tissue (human) (UniProt P29317); test: IF tumor tissue MELA, 1 ug/ml
[8] = target: Human EphA2 (ephrin receptor A2), native, in human tumor tissue (human) (UniProt P29317); test: IF tumor tissue MELA, 3 ug/ml
[9] = target: Human EphA2 (ephrin receptor A2), native, in human tumor tissue (human) (UniProt P29317); test: IF tumor tissue PANC, 3 ug/ml
[10] = target: Human EphA2 (ephrin receptor A2), native, in human tumor tissue (human) (UniProt P29317); test: IF tumor tissue STS, 10 ug/ml
[11] = target: Human EphA2 (ephrin receptor A2), native, in human tumor tissue (human) (UniProt P29317); test: IF tumor tissue STS, 30 ug/ml
[12] = target: Human EphA2 (ephrin receptor A2), native, in human tumor tissue (human) (UniProt P29317); test: IF tumor tissue URO, 10 ug/ml
[13] = target: Human EphA2 (ephrin receptor A2), native, in human tumor tissue (human) (UniProt P29317); test: IF tumor tissue URO, 30 ug/ml
[14] = target: Human EphA2 (ephrin receptor A2), native, in human tumor tissue (human) (UniProt P29317); test: IF tumor tissue ESO, 0.3 ug/ml
[15] = target: Human EphA2 (ephrin receptor A2), native, in human tumor tissue (human) (UniProt P29317); test: IF tumor tissue MELA, 10 ug/ml
[16] = target: Human EphA2 (ephrin receptor A2), native, in human tumor tissue (human) (UniProt P29317); test: IF tumor tissue PANC, 10 ug/ml
[17] = target: Human EphA2 (ephrin receptor A2), native, in human tumor tissue (human) (UniProt P29317); test: IF tumor tissue PANC, 30 ug/ml
[18] = target: Human EphA2 (ephrin receptor A2), native, in human tumor tissue (human) (UniProt P29317); test: IF tumor tissue STS, 0.1 ug/ml
[19] = target: Human EphA2 (ephrin receptor A2), native, in human tumor tissue (human) (UniProt P29317); test: IF tumor tissue URO, 0.3 ug/ml
[20] = target: Human EphA2 (ephrin receptor A2), native, in human tumor tissue (human) (UniProt P29317); test: IF tumor tissue MELA, 0.1 ug/ml
[21] = target: Human EphA2 (ephrin receptor A2), native, in human tumor tissue (human) (UniProt P29317); test: IF tumor tissue Uterine, 1 ug/ml
[22] = target: Human EphA2 (ephrin receptor A2), native, in human tumor tissue (human) (UniProt P29317); test: IF tumor tissue Uterine, 3 ug/ml
[23] = target: Human EphA2 (ephrin receptor A2), native, in human tumor tissue (human) (UniProt P29317); test: IF tumor tissue NSCLC-SQ, 1 ug/ml
[24] = target: Human EphA2 (ephrin receptor A2), native, in human tumor tissue (human) (UniProt P29317); test: IF tumor tissue NSCLC-SQ, 3 ug/ml
[25] = target: Human EphA2 (ephrin receptor A2), native, in human tumor tissue (human) (UniProt P29317); test: IF tumor tissue Uterine, 10 ug/ml
[26] = target: Human EphA2 (ephrin receptor A2), native, in human tumor tissue (human) (UniProt P29317); test: IF tumor tissue Uterine, 0.1 ug/ml
[27] = target: Human EphA2 (ephrin receptor A2), native, in human tumor tissue (human) (UniProt P29317); test: IF tumor tissue Uterine, 0.3 ug/ml
[28] = target: Human EphA2 (ephrin receptor A2), native, in human tumor tissue (human) (UniProt P29317); test: IF tumor tissue NSCLC-SQ, 0.1 ug/ml
[29] = target: Human EphA2 (ephrin receptor A2), native, in human tumor tissue (human) (UniProt P29317); test: IF tumor tissue NSCLC-SQ, 0.3 ug/ml
[30] = target: Human EphA2 (ephrin receptor A2), native, in human tumor tissue (human) (UniProt P29317); test: IF tumor tissue NSCLC-Adeno, 3 ug/ml
[31] = target: Human EphA2 (ephrin receptor A2), native, in human tumor tissue (human) (UniProt P29317); test: IF tumor tissue NSCLC-Adeno, 10 ug/ml
[32] = target: Human EphA2 (ephrin receptor A2), native, in human tumor tissue (human) (UniProt P29317); test: IF tumor tissue NSCLC-Adeno, 0.1 ug/ml
[33] = target: Human EphA2 (ephrin receptor A2), native, in human tumor tissue (human) (UniProt P29317); test: IF tumor tissue NSCLC-Adeno, 0.3 ug/ml
[34] = target: Human EphA2 (ephrin receptor A2), native, in human tumor tissue (human) (UniProt P29317); test: IF tumor tissue RCC-papillary, 3 ug/ml
[35] = target: Human EphA2 (ephrin receptor A2), native, in human tumor tissue (human) (UniProt P29317); test: IF tumor tissue RCC-papillary, 10 ug/ml
[36] = target: Human EphA2 (ephrin receptor A2), native, in human tumor tissue (human) (UniProt P29317); test: IF tumor tissue RCC-papillary, 30 ug/ml

Human EphA2 (ephrin receptor A2), native, in human tumor tissue (human), sequence (P29317 25-976): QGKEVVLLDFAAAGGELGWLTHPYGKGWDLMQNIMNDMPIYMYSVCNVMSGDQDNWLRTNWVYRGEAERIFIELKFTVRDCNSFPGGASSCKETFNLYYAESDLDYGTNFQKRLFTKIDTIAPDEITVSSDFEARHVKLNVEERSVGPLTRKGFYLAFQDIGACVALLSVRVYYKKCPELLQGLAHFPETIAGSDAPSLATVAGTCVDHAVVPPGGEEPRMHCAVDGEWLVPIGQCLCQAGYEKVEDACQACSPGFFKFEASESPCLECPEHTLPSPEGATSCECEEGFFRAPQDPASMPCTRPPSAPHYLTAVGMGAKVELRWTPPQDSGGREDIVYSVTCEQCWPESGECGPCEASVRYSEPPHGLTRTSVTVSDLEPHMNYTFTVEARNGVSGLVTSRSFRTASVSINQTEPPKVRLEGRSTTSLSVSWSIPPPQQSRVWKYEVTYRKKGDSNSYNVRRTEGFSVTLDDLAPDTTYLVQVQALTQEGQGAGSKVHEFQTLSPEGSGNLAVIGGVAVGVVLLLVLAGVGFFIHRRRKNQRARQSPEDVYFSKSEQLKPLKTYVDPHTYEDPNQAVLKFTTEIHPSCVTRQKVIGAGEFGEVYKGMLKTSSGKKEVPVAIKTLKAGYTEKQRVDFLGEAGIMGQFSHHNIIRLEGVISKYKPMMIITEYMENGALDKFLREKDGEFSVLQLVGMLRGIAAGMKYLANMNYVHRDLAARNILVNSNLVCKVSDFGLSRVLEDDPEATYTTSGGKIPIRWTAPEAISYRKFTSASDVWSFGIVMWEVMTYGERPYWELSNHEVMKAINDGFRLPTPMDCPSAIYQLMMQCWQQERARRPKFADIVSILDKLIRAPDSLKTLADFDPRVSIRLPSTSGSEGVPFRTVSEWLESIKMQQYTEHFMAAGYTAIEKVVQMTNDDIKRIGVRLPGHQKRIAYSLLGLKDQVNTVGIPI

Substance: AB-010018 (mouse monoclonal antibody precursor of DS-8895a; mouse IgG2a format)
- tissue reactivity score [1]: 1
- tissue reactivity score [2]: 1
- tissue reactivity score [3]: 1
- tissue reactivity score [4]: 2
- tissue reactivity score [5]: 1
- tissue reactivity score [6]: 2
- tissue reactivity score [7]: 2
- tissue reactivity score [8]: 2
- tissue reactivity score [9]: 2
- tissue reactivity score [10]: 1
- tissue reactivity score [11]: 2
- tissue reactivity score [12]: 2
- tissue reactivity score [13]: 2
- tissue reactivity score [14]: 1
- tissue reactivity score [15]: 2
- tissue reactivity score [16]: 2
- tissue reactivity score [17]: 2
- tissue reactivity score [18]: 1
- tissue reactivity score [19]: 2
- tissue reactivity score [20]: 1
- tissue reactivity score [21]: 2
- tissue reactivity score [22]: 2
- tissue reactivity score [23]: 1
- tissue reactivity score [24]: 1
- tissue reactivity score [25]: 2
- tissue reactivity score [26]: 1
- tissue reactivity score [27]: 2
- tissue reactivity score [28]: 1
- tissue reactivity score [29]: 1
- tissue reactivity score [30]: 1
- tissue reactivity score [31]: 1
- tissue reactivity score [32]: 1
- tissue reactivity score [33]: 1
- tissue reactivity score [34]: 2
- tissue reactivity score [35]: 2
- tissue reactivity score [36]: 2
